Results as given in a protein production outcome set (Wang et al. 2014).

Assay: label from the status in PepcDB records

MSASLPRTSATALSSTSPLSARDAAPPKRPRFLRGGVAFSLSPNRDNGLVTFRLDTIGTGLVFADSLSNLTAALATQGGGGAAVVQAPPGTGKTTLVPPLLANLVSEQSPGRPRVVVTQPRRVAARSAARRLASLDGSQLGRRVGYTVRGESKVSQDTVVEFVTPGILLRRLLADPGLEDVSAVVLDEVHERGLETDLLVGMLAEVRELRGDITVVAMSATLDAARFATLLGTGLDGGDPAPVVDCPSALYPLKVQWVPAREHRLDARGVSRLFLDHVAHTAATTHAAALAPDADVDALVFLPGAREVSDVATRLRGLVSGNVEVLELHGQIGPEAQDRAVSGREPGGLPRIIVSTSLAESSLTVPGVRVVIDSGLSREPRRDAGRGMSGLVTVSCSRASADQRAGRAARQGPGTVVRCYDQQAYAAAPAHQTPEISVADLTSAALVLACWGAPGGVDLKLPDAPPAAAMNDAVEVLRELGAVTAEGTVTAVGKTLARIPADPRLARALLDGSAVAGRRAAAETVALVAGGQRAPGADLNKLLSALRSGSDPGARRFAEDVQRMETLVRKEAAAVVRPKAAADVTAGEATGLVVALAFPDRVARRVPGDGSTTYLLSSGTRAGLPSGSSLSGHDWLAVAEVSRAQGRDAAGTGAVIRSAATLSAELAEAAAPDLLTEKVEAKFDQGRVMARLERRLGAIVLSSTPVRPTAESGRRAVSEALEKTGLSMIGWSPAADALRRRLALLHRELGSPWPDVREAALLSRLEDWLGPELEAVATGAAVSSINLVDPLRRLLPWPDAARLEDLVPERLEVPSGSRVRIDYPEVSDRSSGDHDDGRPVVAVKLQECFGWDSTPRLLAGRVPVLFHLLSPAGRPLAVTDDLASFWSGPYSQVRAEMRGRYPRHPWPEDPWTAQATAKTKNRM
protein production: failed

MSLGFVTAAYIIAALLFIMSLAGLSKHETAKAGCWYGISGMAIALFATIFGPQSYGTIWILIAMAIGGYIGIQKALKVEMTAMPELVAILHSFVGLAAVLVGFNSYGLHNDPLIPSNLDAVARANFIVEQQTLATIHYIEVFLGIFIGAVTFSGSLIAFGKLSGNLFGCKVSSVALNLPNKHKLNLAALIISGLLMMVFLNNPVNIFPVLIMTIIALALGWHLVASIGGADMPVVVSMLNSYSGWAAAAAGFMLSNDLLIVTGALVGSSGAILSYIMCKAMNRSFISVIAGGFGNEMKADSAAEQAQGEHRETTVEDVAEMLKNAHSVIITPGYGMAVAQAQYPVAEITAKLREKGINVRFGIHPVAGRLPGHMNVLLAEAKVPYDVVLEMDEINDDFENTDVVLVIGANDTVNPAALDDPSSPIAGMPVLEVWKAQNVVVFKRSMAVGYAGVQNPLFFKENTQMLFGDAKERVDDILRALN
protein production: failed

MTGEGTNYLIVGSDSRAGMSAEEKKKLHTGSAEGKRTDSMMILHTGDNGSTLVSLPRDSDVEIPTFKGSTSGKTYPGTGRHVKLNAAYAEDGPELLVRTIEYNTGLHIDHYVEIGFAGFANIVDSVGGVEMTLDKGFKDTFSGADFKAGKQTLNGEQALAFVRTRHAFAASDLERTKNQQKFLSALAHQVATPSTVLNPFKLYPTLSSGLDTLIVDKDMGLFDLADMFWAMKGVTGGDGTSMNMPISGSSGGNLVWDKAKVKALVNELKNDEKVTVSGNLEHHHHHH
protein production: not failed

MEPIVFNGYHTLITATLVLLVGRFFVNKIKVLQDFNIPEAVAGGLIAAVAILCLYNWFGVSLQFEQSLQNAFMLAFFSSVGLSADFSRLKQGGMPLVIFLVVVSLYIIIQNVIGVGLASALGLDPMIGLLTGSITLTGGHGTGAAWAKIFSEEYNITGVMEMAMASATFGLVAGGLIGGPIARRLINKMKKDRSQQITKRVDTSAEQYDGSTFEDHDSIRYITASSTIETMALFAACLGFSSIIVNTFPDISLPQFVWALGFGVILRNVLTKVFKFDMFDRAIDVFGNASLSMFLAMALMSIKLWELTGLAGPMLIILVVQTLVMILYGYFVTYRVMGKDYDAAILTAGHCGFGLGATPTAVANMQSVTEKFGSSHKAFLIVPLVGAFFVDILNLAVITSFVDFLR
protein production: failed

MMQDISIFLAFGAGFLSFISPCCLPLYPAFLSYITGMSVSELKEENAMLRKRSMIHTAFFLLGFSIIFIAIGFGTSFIGGIFTDYKDLIRQLGGIFIIVFGLIIVGVFKPKFLMQDRKFTFKNRPSGYFGSVLIGLAFAAGWTPCTGPILVSVIGLAATNPESAMIYMIAYILGFAIPFFVLSFFITKMSWIKRNSMAFMKVGGYIMIVMGVFLYFNWMTKIIVYFSSLFGGFTGF
protein production: failed

MTLMCSIAGIYLAKLPYANIIGALVLALLLGILMQLAPEKMRKEASSGMSFISNKFLRLGIILLGFRLDLEKLAAAGVKTILVAALAVAGTITLTYWLSRKFGAEDELAFLSACGCGVCGAAAVMGVSPQITAASEERKRENEVLAVAVVCVMGTVFTLLEIGLKPVLGLTDSQFGIVAGGSLHEIAHAVASGGAFGNISLDSALIMKLSRVILLAPVALIIGYLYQRRTAKVSTIDSTTKTGKLPIPWFLGGFILTSVLGTYLPFSTSLLDALVQVAYIFLGMAMAALGISVNFKVIFKRGGAVFGAAAISSTCLLIFMIIMSKLFF
protein production: failed

MTDREWPEYPNQSGGETVTGPESAQEEAASERGWEADPPSPASEECQSEEGSNWERTAQEAEEEVPGGQRGEDLGTLGQAQELQEAAPFFQEEGSEPSQTTETSGWKPGMESSEDSREEPDLPAESPESSGQELQEAAALSPEETQVPFQTENAWEPGAERPENPDGGESQEPVAERPSAQPYDQSPAFSRPAPQAPPPVWNPGWQASYRQAPQNYPYGQGQYQGGWHPQQRQVPPPYYGGTPYQAPNPYQNQAPYGYPGQAARNQGQPGYQESRWYPQQPAQPARTGSVPPPSQPPQKEAGELPDAKPPEKKRMNKKTKAFLWVIGAVLVLLGAAMVLYSVGLTSGWFGGETAEPPQASSSTPAPEDDQKLLEIEEIPQDGMMTPNQVYEKVKHSVVAVVTYGQGSDLTDSPISSGSGIVFSEDGYIVTNSHVIGDSNQYPVKMVFTGQDENEEDQEYPAQIVGYDKRTDIAVLKIDAAGLTPAEFADSDQLKVGDTVLSLGNPGVAGENFTNTLTKGMVSAVNRTVTMSSINMQYIQTDAAINPGSSGGALLNLYGQVVGINAAKITTTEIEGICFAIPTNIAKDVINDIVKNGYVSDRVRLGVTIRGLSSYEAEMYNVPQGLVIVGFSSDSEIPSKGAEIGDIITAINGVNTTSSNTLYNELEKFKAGEKVKLTIYRQASGSQRARTFEIEVTLLEARGETQSAVTPTPEAP
protein production: failed

MQTIYRLKEPQIDREEDVRTIIQTFLFQFSEKAYGGPSFNRPACCFAPHIYGAGKTFVGQNFSAYLNIFAERECSNAQTFQQLHSSNDNPQPSELKVPWKHFAEKTLSVCFKLEESFSDAPFPSFRKALMYNIILNS
protein production: not failed

MIFMHPKTLEILKMFEEINKIPRRSKNEEKLALWLMEWAKNHNFEAKTDALNNVLIKVPPTPGYENSPAIVLQGHMDMVCEKCRDSGHDFSKDPIICIYEGDWLRGDGTSIGADNGIALAIGLVLAESGIKGEIEHPPLELLFTVDEETGLTGASGLEEDFFEGRILLNLDSEDEGIFILGCAGGQNSRIFLPLQWESFDYGKGSGFGLFRISAEGLEGGHSGVEIHRQRANGIQLLARMLSALKEKVGKENLRLVFFSGGSVHNAIPNYAEAFIVLSRNNEKQAEDFVSGLQKSFRGEYAVSDPEITLQLKEVENGIIFEASGGKITRKEVPSDRVFSVETEEKLYGVLLGMPHGVHRVSDTIPGLVETSNNLATVRTGEKEVRIVSSQRSSVMSRLAEVTEKVETVAKLAGARVEHECGYPAWEPDLQSGLLMKCRHAYSGTFGKEPEIKVVHAGLECGVIGSKCECIEMISFGPTIKDPHSPAERVYIPSIEKVWVFLENLMKSYRLEHHHHHH
protein production: not failed

MKKWFPALLFSLCVSGESSAWNHNIVFYSLGNVNSYQGGNVVITQRPQFITSWRPGIATVTWNQCNGPEFADGSWAYYREYIAWVVFPKKVMTQNGYPLFIEVHNKGSWSEENTGDNDSYFFLKGYKWDERAFDAGNLCQKPGETTRLTEKFDDIIFKVALPADLPLGDYSVTIPYTSGIQRHFASYLGARFKIPYNVAKTLPRENEMLFLFKNIGGCRPSAQSLEIKHGDLSINSANNHYAAQTLSVSCDVPANIRFMLLRNTTPTYSHGKKFSVGLGHGWDSIVSVNGVDTGETTMRWYKAGTQNLTIGSRLYGESSKIQPGVLSGSATLLMILP
protein production: failed

MNIQQLEYIAALDKFRHFAKAADYCNVSQPTLSTMILKLEEELGAKLFDRSRQPIEPTSIGALVVSQAKQILYDLNSITRIIEEEQ
protein production: failed

MPTVAPLDIEGHVVSTHFLGDIPLFATAAGTIHRLDGGEKVTEAHDGLLTCIRDPYSATLLSGGEDGRVLRIGHDGSISEIANVPRKWVGVVAGGPQKAVAYGVGKSSFVRLSDCTVKEFKEERTVEAIAFAPKGLRIAVARYNGVTLHWVATAGDPVDLEWKGAHTGVTFSPDGKFLVTTMQENALHGWKMEATKGGMEARHMRMTGYPAKVKSISWSVKGKWLASSGAPAAIVWPFSGKDGPMGKAPEELGSRANIMATNVAFHPVEDVLAIGFIDGMILGVRLADGKEALLRRPGKGAITSMDWSATGNLLAFASEAGDCGIIDISALEHHHHHH
protein production: failed

SLSSKDKDTVKALWGKIADKAEEIGSDALSRMLAVYPQTKTYFSHWKDLSPGSAPVNKHGKTIMGGIVDAVASIDDLNAGLLALSELHAFTLRVDPANFKILSHCILVLLAVKFPKDFTPEVHISYDKFFSALARALAEKYR
protein production: not failed

FLTEFINYIKKSKVVLLEDLAFQMGLRTQDAINRIQDLLTEGTLTGVIDDRGKFIYITP
protein production: not failed

MQRFIDNSLESNWLWLTARICLALMFVASGLAKLFDYQASLEEMRAAGLEPAWLFNIATAVTLLAGSALVLLDRKLWLGAGALAVFLLLTILIVHTFWSKTGVEAKLAMFFALEHIAVIGGLIATAIASAQRQRLRQDVSVAATYQKA
protein production: failed

MKQPFERILREICFMVKVEGRKVLRDFGITPAQFDILQKIYFEGPKRPGELSVLLGVAKSTVTGLVKRLEADGYLTRTPDPADRRAYFLVITRKGEEVIEKVIERRENFIEKITSDLGKEKSSKILDYLKELKGVMERNFSKQ
protein production: not failed

MGNEEEKMNADIFSYEGEGIQCVYDNKNWVMCIKNWKPNNDIENIRYLEVHHATDEQFVLLKGKAVLLAAVKADGACRIDVIPMEPYKVYNIPQGIWFNTITQKDTKLVYVQDAATTAENSEYCDMTQEELNEVKEKASACLD
protein production: failed

QNVLDLHGLHVDEALEHLMRVLEKKTEEFKQNGGKPYLSVITGRGNHSQGGVARIKPAVIKYLISHSFRFSEIKPGCLKVMLK
protein production: not failed

MGVKRKKMGKVAGFTEWTAEDLEAFRARWPIGTAQRLALELYQWTGARCVDVIRLGPQMVGRDGVLTYVQQKTGNPAHVPWTCPAFGLEEQRADLMRCLPVGSPVYMLTEYGKPRTQKGVSQWFSAAAREAGLESRTAHGLRKYRMNALAEHGASVLVMQSWVGHTTLLEVQEYTRLEHHHHHH
protein production: not failed

MKKTRRILLGLALIIGLSVGAGCRSTASKSKTANASQSATTRTVTDMAGTKVKIPTKVTRVADLWHANNQVVLLLGGQKKLVATTQMIKQSPWFKTIDPGISRVTAPFAGDDLQTEELLKAKPDVVIAADTAQVKQARKAKIPTINAMYQTFAGLRQSVNLTAQVLGGTAPKIAKAYQKTLTTNLNDVKNRLKDVTFKPKVLHFVNATNLNQVDGTGTIVNEWIKAAGGQNALKQKGNMISVTTETLAKSDPDVIIVGSATTAEARAALKKNAVLSKLTAVKKNRVYGNPQGTFPWDRYSAEEALQVLWAAKKLHPDQFQDLNMVAKTKAFYQQFYHYQLSTAQANRLLNGASSPK
protein production: failed
